From patent US20210299158A1 (NORTHWESTERN UNIVERSITY, published 2021)
Ends that are not written are not given here. * marks the point of attachment. Biotin = O=C1N[C@H]2[C@H](CS[C@H]2CCCCC(=O)*)N1

B1: CBP-Hep(Cy5), improved batch (Heparin(Cy5)-CBP conjugate, 20 C, 10:1 molar ratio CBP:Hep-Cy5) (peptide)
peptide: CQDSETRTFY
modifications: also: peptide conjugated by EDC/NHS to carboxyl groups of Cy5-labelled heparin (28 kD), attachment site not given here

Tests used:
Collagen type I (rat) = molecular target: T1, Collagen type I (rat) (rat, UniProt P02454 152-1207; P02466 86-1125); experiment: plate binding, biotinylated peptide on coated protein, streptavidin-594 fluorescence
T1 construct: Coated on plates at 10 ug/cm^2; the chains come from general knowledge; also called collagen I; COL I
Method: (§1) Peptide and ECM Binding Specificity. Collagens I, II, III, and IV, fibronectin, laminin, and Matrigel were coated onto 96-well black plates at 10 μg/cm². Biotinylated CBP or CBPi were added to coated plates at 0, 1, 10, 100, and 1000 μM overnight at 4° C., after which the plates were washed three times with PBS. Fluorescent streptavidin-594 (4 μg/mL) was added to each well and incubated at room temperature for 2 h, then thoroughly washed with PBS. The plates were read with a fluorescence microplate reader for fluorescence intensity (Ex 591 nm, Em 614 nm). All data were normalized to the background fluorescence intensity of Streptavidin-594 alone directed at each coated protein.
(§2) CBP Selectively Binds to ECM with High Specificity to Collagen IV. […] Bound peptides were subsequently probed with fluorescently labeled streptavidin. CBP, but not CBPi, bound specifically to collagen IV coated surfaces with high relative affinity, and to collagen I coated surfaces to a much lesser extent. […] Neither CBP nor CBPi binds to collagen II, collagen III, or fibronectin.

[1] = molecular target: T2, Collagen type III (human) (human, UniProt P02461 154-1221); experiment: as above
T2 construct: Coated on plates; also called collagen III; COL III
T2 sequence (looked up): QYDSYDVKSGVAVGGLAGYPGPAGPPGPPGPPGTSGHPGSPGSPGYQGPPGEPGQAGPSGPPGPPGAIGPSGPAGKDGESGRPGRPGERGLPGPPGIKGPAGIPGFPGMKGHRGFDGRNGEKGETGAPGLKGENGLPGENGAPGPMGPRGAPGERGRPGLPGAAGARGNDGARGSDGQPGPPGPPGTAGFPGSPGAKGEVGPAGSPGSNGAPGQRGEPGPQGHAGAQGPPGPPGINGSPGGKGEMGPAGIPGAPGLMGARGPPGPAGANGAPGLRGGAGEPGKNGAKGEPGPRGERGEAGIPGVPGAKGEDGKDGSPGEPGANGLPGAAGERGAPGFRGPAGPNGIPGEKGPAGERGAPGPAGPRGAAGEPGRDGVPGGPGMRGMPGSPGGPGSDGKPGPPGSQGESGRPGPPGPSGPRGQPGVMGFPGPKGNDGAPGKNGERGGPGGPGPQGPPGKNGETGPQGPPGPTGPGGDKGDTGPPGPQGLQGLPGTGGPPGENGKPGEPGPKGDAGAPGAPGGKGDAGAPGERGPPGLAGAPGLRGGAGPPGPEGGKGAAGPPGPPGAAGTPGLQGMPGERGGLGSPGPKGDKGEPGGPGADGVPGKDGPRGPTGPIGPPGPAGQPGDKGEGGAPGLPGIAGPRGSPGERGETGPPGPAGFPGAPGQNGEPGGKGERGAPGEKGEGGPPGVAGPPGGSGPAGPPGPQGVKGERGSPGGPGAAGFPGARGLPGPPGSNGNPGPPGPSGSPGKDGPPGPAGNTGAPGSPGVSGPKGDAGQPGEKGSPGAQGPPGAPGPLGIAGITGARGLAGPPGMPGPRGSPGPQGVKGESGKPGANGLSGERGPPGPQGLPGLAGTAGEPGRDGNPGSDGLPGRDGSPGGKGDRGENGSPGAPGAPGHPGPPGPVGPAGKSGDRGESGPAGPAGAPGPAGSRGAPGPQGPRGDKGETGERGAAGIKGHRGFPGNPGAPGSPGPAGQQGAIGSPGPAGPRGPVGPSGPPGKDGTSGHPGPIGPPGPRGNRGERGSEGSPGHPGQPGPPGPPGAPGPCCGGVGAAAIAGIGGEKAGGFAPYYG
Method: as §1, §2

Collagen type IV (mouse) [2] = molecular target: T3, Collagen type IV (mouse) (mouse, UniProt P02463 28-1669; P08122 26-1707); experiment: as above
T3 construct: Coated on plates at 10 ug/cm^2; the chains come from general knowledge; also called collagen IV; COL IV
Method: as §1, §2

[3] = molecular target: T4, Fibronectin from human plasma (human, UniProt P02751-8 32-2296, limits assumed); experiment: as above
T4 construct: Coated on plates; also called FN
Method: as §1, §2

Collagen type IV (mouse) [4] = molecular target: T3, Collagen type IV (mouse); experiment: plate binding, biotinylated CBP at 100 µM on coated collagen IV, streptavidin-594 fluorescence normalised to background
Method: as §1, §2

Collagen type IV (mouse) [5] = molecular target: T3, Collagen type IV (mouse); experiment: plate binding, biotinylated CBP at 1000 µM on coated collagen IV, streptavidin-594 fluorescence normalised to background
Method: as §1, §2

[6] = molecular target: Collagen IV (surface coated, Example 2); experiment: Cy5 fluorescence after 24 hour incubation on surface coated collagen IV; conjugate at 30 mg/ml; reference is the scrambled CBPi-Hep(Cy5) conjugate

T3 sequence (P02463 28-1669, chain 1 of 2): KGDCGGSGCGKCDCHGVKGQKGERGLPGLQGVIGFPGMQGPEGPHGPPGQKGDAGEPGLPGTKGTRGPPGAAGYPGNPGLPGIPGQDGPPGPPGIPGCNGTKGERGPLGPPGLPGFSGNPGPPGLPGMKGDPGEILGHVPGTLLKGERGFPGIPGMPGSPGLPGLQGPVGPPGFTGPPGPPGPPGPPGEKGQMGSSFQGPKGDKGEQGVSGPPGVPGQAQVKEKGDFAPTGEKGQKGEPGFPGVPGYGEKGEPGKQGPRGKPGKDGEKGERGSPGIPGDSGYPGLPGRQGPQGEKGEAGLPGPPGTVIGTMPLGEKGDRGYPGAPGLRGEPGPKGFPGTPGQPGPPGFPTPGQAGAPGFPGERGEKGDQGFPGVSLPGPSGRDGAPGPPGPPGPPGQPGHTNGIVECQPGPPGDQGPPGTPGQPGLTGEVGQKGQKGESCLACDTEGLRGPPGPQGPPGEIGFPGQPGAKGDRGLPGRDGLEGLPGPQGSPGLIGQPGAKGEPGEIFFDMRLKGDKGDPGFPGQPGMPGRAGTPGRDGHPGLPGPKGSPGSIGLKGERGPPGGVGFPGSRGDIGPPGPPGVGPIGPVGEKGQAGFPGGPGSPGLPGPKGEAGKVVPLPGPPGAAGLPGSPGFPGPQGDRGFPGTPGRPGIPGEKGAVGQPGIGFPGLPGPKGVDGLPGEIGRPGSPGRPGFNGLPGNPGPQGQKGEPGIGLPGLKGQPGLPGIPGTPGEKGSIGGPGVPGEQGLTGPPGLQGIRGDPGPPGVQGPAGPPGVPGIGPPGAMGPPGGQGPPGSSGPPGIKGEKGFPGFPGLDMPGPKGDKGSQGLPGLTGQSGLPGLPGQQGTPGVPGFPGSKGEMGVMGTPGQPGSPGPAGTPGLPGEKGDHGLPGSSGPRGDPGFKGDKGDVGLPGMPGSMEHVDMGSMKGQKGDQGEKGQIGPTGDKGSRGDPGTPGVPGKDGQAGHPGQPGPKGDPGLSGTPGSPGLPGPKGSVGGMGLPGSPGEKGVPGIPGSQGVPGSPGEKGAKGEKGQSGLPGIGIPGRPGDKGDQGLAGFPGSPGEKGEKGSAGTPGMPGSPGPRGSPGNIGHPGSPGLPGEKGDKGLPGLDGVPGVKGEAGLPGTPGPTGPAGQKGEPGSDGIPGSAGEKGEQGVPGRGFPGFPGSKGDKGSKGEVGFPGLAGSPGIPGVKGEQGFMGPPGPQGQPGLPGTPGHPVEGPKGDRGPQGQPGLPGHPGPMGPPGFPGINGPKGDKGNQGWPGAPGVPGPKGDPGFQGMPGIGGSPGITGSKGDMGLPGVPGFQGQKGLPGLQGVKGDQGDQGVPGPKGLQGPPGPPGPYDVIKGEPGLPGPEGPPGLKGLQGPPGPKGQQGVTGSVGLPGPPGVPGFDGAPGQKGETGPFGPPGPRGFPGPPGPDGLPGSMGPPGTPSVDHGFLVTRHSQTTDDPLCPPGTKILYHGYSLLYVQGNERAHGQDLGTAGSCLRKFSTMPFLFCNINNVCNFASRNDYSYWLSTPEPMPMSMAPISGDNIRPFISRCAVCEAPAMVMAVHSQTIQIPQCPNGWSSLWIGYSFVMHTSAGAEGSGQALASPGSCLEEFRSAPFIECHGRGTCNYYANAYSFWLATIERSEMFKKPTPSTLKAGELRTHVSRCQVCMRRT
T3 sequence (P08122 26-1707, chain 2 of 2): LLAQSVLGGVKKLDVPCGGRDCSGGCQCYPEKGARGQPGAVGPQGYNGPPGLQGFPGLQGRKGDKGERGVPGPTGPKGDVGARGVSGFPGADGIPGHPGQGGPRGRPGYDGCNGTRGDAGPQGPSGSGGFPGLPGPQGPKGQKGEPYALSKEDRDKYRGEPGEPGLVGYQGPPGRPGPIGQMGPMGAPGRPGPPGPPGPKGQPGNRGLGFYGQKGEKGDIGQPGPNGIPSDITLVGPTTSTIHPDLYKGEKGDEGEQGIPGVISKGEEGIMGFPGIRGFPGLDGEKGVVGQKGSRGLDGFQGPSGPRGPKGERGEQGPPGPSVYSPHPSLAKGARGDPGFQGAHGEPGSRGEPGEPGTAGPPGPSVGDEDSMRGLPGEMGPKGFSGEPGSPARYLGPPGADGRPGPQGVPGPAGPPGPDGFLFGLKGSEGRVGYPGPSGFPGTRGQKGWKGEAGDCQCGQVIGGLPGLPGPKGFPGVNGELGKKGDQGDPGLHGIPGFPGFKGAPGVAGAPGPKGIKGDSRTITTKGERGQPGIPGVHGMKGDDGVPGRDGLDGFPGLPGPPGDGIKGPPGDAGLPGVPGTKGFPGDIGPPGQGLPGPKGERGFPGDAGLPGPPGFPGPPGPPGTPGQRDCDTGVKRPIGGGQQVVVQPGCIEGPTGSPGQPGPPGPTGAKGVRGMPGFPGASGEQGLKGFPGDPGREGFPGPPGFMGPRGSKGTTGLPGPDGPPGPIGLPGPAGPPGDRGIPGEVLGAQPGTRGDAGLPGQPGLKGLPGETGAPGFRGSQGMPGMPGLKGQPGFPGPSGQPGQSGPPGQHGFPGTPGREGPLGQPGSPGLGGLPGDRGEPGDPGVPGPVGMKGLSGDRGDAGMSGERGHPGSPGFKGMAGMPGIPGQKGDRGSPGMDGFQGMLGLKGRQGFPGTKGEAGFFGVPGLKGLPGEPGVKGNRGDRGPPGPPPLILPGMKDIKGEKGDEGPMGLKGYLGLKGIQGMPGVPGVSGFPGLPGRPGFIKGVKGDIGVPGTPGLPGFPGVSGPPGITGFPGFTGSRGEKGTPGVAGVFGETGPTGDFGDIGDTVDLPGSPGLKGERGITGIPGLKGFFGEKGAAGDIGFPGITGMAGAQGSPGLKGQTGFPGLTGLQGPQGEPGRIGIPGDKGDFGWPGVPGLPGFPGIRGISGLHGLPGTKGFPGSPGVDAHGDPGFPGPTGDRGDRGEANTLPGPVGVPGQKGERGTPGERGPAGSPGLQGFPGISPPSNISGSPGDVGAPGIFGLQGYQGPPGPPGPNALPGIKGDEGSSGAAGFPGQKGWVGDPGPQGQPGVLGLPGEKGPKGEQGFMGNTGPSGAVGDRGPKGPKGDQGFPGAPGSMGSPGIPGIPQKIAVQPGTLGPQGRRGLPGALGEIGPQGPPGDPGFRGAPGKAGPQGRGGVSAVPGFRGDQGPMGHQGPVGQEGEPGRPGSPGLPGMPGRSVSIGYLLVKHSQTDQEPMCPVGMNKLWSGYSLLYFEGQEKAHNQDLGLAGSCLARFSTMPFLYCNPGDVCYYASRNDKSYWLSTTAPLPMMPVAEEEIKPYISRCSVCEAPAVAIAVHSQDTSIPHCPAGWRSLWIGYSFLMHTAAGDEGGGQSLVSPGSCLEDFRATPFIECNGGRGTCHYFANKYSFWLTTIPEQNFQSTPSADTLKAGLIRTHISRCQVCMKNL

Binder	binding result (Collagen type I (rat))	binding result [1]	binding result (Collagen type IV (mouse) [2])	binding result [3]	fold increase in surface fluorescence intensity (Collagen type IV (mouse) [4]) [fold]	fold increase in surface fluorescence intensity (Collagen type IV (mouse) [5]) [fold]	fold binding against the scrambled CBPi control [6] [fold]
Biotin-CDEFQRSTTY (also called biotinylated CBPi) [Biotinylated inactive, nonbinding peptide CBPi (biotin-CDEFQRSTTY)]	no binding (tested: 1000 µM)	no binding (tested: 1000 µM)	no binding (tested: 1000 µM)	no binding (tested: 1000 µM)	–	–	–
Biotin-CQDSETRTFY (also called biotinylated CBP) [Biotinylated collagen-binding peptide CBP (biotin-CQDSETRTFY)]	–	no binding (tested: 1000 µM)	–	no binding (tested: 1000 µM)	3.85	12.1	–
B1	–	–	–	–	–	–	4
